Test results reported in US20090325290A1 (published 2009).
Residue numbers refer to the chain shown, from its start.

T1: human MHC class II DR protein (DRA*0101/DRB1*0401), purified from PRIESS cells (human, UniProt P01903 26-254; P01911 30-266, limits assumed)
T1 construct: mature; 'mature' is my reading; also called HLA-DR protein; MHCII
T1 MHC II alpha: not shown
T1 MHC II beta: not shown

T2: HLA-DR (DRA*0101/DRB1*0401) on the surface of PRIESS cells (human, UniProt P01903 26-254; P01911 30-266)
T2 MHC II alpha: not shown
T2 MHC II beta: not shown

B1: MS-GPC-8-6-47 (Fab form) (Fab, V domains shown)
VH: QVQLKESGPALVKPTQTLTLTCTFSGFSLSTSGVGVGWIRQPPGKALEWLALIDWDDDKYYSTSLKTRLTISKDTSKNQVVLTMTNMDPVDTATYYCARSPRYRGAFDYWGQGTLVTVSS
VL: DIVLTQPPSVSGAPGQRVTISCSGSESNIGSNYVSWYQQLPGTAPKLLIYDNNQRPSGVPDRFSGSKSGTSASLAITGLQSEDEADYYCQSYDYDHYVFGGGTKLTVLG
notes: Fab: VH-CH1-FLAG-STREP tag II
B2: MS-GPC-1 (scFv form) (scFv, V domains shown)
VH: B1 VH with Q1E, S100Q, P101Y, R102G, Y103H, A106G, Y109H
VL: B1 VL with E26S, Y94F, D95N, H96E, Y97S
B3: MS-GPC-8-6 (IgG form) (antibody, V domains shown)
VH: B1 VH
VL: B1 VL with E26S
B4: MS-GPC-8-6-2 (IgG form) (antibody, V domains shown)
VH: B1 VH
VL: B1 VL with S35H
B5: MS-GPC-1 (Fab form) (Fab, V domains shown)
VH: B1 VH with S100Q, P101Y, R102G, Y103H, A106G, Y109H
VL: B1 VL with E26S, Y94F, D95N, H96E, Y97S
B6: MS-GPC-8-27-7 (Fab form) (Fab, V domains shown)
VH: B1 VH
VL: B1 VL with S31N, S35G, Y94M, D95N, H96V, Y97H
notes: Fab: VH-CH1-FLAG-STREP tag II
B7: MS-GPC-8-6-2 (Fab form) (Fab, V domains shown)
VH: B1 VH
VL: B1 VL with S35H
B8: MS-GPC-10 (Fab form) (Fab, V domains shown)
VH: B1 VH with S100Q, P101L, R102H, A106G, Y109L
VL: B1 VL with E26S, Y94L, D95T, H96M, Y97G
B9: MS-GPC-8-6-19 (Fab form) (Fab, V domains shown)
VH: B1 VH
VL: B1 VL with S35A
B10: MS-GPC-8-27-41 (Fab form) (Fab, V domains shown)
VH: B1 VH
VL: B1 VL with S31N, S35Q, Y94M, D95N, H96V, Y97H
notes: Fab: VH-CH1-FLAG-STREP tag II; also called 1D09C3
B11: MS-GPC-8-6-27 (Fab form) (Fab, V domains shown)
VH: B1 VH
VL: B1 VL with E26D, S31A, S35T
notes: Fab: VH-CH1-FLAG-STREP tag II
B12: MS-GPC-8-27-10 (Fab form) (Fab, V domains shown)
VH: B1 VH
VL: B1 VL with S31A, S35N, Y94M, D95N, H96V, Y97H
notes: Fab: VH-CH1-FLAG-STREP tag II
B13: MS-GPC-8-10-57 (Fab form) (Fab, V domains shown)
VH: B1 VH
VL: B1 VL with S31N, S35Q, Y94L, D95I, H96R, Y97H
notes: Fab: VH-CH1-FLAG-STREP tag II; also called 1C7277
B14: MS-GPC-8-6-13 (Fab form) (Fab, V domains shown)
VH: B1 VH
VL: B1 VL with S31A, S35T
notes: Fab: VH-CH1-FLAG-STREP tag II; also called 305D3
B15: MS-GPC-8 (Fab form) (Fab, V domains shown)
VH: B1 VH
VL: B1 VL with E26S, Y94M, D95P, H96Q, Y97A
notes: Fab: VH-CH1-FLAG-STREP tag II; also called B8-Fab; B8
B16: MS-GPC-8-6-13 (IgG4 form) (antibody, V domains shown)
VH: B1 VH
VL: B1 VL with S31A, S35T
notes: Human IgG4 (constant region EMBL K01316), lambda constant region (EMBL M18645), from CHO-K1 cells; also called 305D3
B17: MS-GPC-8-6 (Fab form) (Fab, V domains shown)
VH: B1 VH
VL: B1 VL with E26S
notes: Fab: VH-CH1-FLAG-STREP tag II
B18: MS-GPC-8-27-41 (IgG4 form) (antibody, V domains shown)
VH: B1 VH
VL: B1 VL with S31N, S35Q, Y94M, D95N, H96V, Y97H
notes: Human IgG4 (constant region EMBL K01316), lambda constant region (EMBL M18645), from CHO-K1 cells; also called 1D09C3
B19: MS-GPC-8-10-57 (IgG4 form) (antibody, V domains shown)
VH: B1 VH
VL: B1 VL with S31N, S35Q, Y94L, D95I, H96R, Y97H
notes: Human IgG4 (constant region EMBL K01316), lambda constant region (EMBL M18645), from CHO-K1 cells; also called 1C7277

Key:
[1] = biological target: human-mouse chimeric molecule DR-IE (human; mouse); test: cell-based or functional assay
[2] = biological target: T3, human apotransferrin (human, UniProt P02787 20-698); test: ELISA, antigen coated at 10 µg/well
T3 construct: negative control protein
Procedure: (§1) After washing in PBS the anti-human IgG F(ab)₂-peroxidase-conjugate at a 1:10,000 dilution in TBS (supplemented with 5% w/v non-fat dry-milk/0.05% v/v Tween 20) was added to each well for 1 h. Final washes were carried out in PBS followed the addition the substrate POD (Roche). Color-development was read at 370 nm in an ELISA-Reader.

[3] = biological target: T1, human MHC class II DR protein …; test: SPR (BIAcore), scFv, chip density 500RU MHCII
[4] = biological target: T2, HLA-DR (DRA*0101/DRB1*0401) on the …; test: cell-based or functional assay
[5] = biological target: T4, bovine serum albumine (bovine, UniProt P02769 25-607); test: ELISA, antigen coated at 10 µg/well
T4 construct: negative control protein; also called BSA
Procedure: as §1

[6] = biological target: T5, HLA-DR on the human B-lymphoblastoid cell line LG-2 (human); test: cell-based or functional assay
[7] = biological target: T5, HLA-DR on the human B-lymphoblastoid …; test: FACS on LG-2 cells, competitor 1-1C4
Procedure: Subsequently murine antibodies were added and the murine antibodies were detected.
The whole staining procedure was performed on ice. 1×10⁷ cells of the human B-lymphoblastoid cell line LG-2 was preblocked for 20 min. in PBS containing 2% FCS and 35 μg/ml Guinea Pig IgG (“FACS-Buffer”). […] Subsequently, 4 ml of PBS were added to each vial, the vials were centrifuged at 300×g for 8 min, and the cell pellet resuspended in 50 μl FACS buffer containing a 1 to 25 dilution of a goat-anti-murine Ig-FITC conjugate at 20 μg/ml final concentration (BD Pharmingen, Torrey Pines, Calif., USA). Cells were incubated light-protected for 30 min. Afterwards, cells were washed with 4 ml PBS, centrifuged as above and resuspended in 500 μl PBS for analysis in the flow cytometer (FACS Calibur, BD Immunocytometry Systems, San Jose, Calif., USA).

[8] = biological target: T1, human MHC class II DR protein …; test: BiaCore, IgG4
Procedure: The affinities for anti-HLA antibody fragments of the invention were measured as follows. All measurements were conducted in HBS buffer (20 mM HEPES, 150 mM NaCl, pH 7.4) at a flow rate of 20 μl/min at 25° C. on a BIAcore3000 instrument (Biacore AB, Sweden). MHC class II DR protein (prepared as example 1) was diluted in 100 mM sodium acetate pH 4.5 to a concentration of […], and coupled to a CM5 chip (Biacore AB) using standard EDC-NHS coupling chemistry with subsequent ethanolamine treatment as manufacturers directions. The coating density of MHCII was adjusted to between 500 and 4000 RU. Affinities were measured by injection of 5 different concentrations of the different antibodies and using the standard software of the Biacore instrument. Regeneration of the coupled surface was achieved using 10 mM glycine pH 2.3 and 7.5 mM NaOH.

[9] = biological target: T5, HLA-DR on the human B-lymphoblastoid …; test: cell-based or functional assay; remark: listed apart in the source
[10] = biological target: T1, human MHC class II DR protein …; test: SPR (BIAcore), Fab, 3 chips (500, 4000, 3000RU)
[11] = biological target: HLA-DR antigen on the surface of HLA-DR positive cells (tumor cell lines other than PRIESS and LG-2, normal B … (human)); test: cell-based or functional assay
[12] = biological target: human-mouse chimeric molecule DR-IE (human; mouse); test: cell-based or functional assay; remark: listed apart in the source

Row | Binder | IC50, inhibition of IL-2 secretion of T-Hyb 1 cells [1] | Maximum inhibition(%) of IL-2 secretion [1] [%] | binding result [2] | also measured
1 | B1 | 2.6 nM ((Fab)/2) | 100 | no binding (tested: 100 ng/well) | –
2 | B2 | – | – | – | Kd [3]: 1500 nM; koff [3]: 0.061 s⁻¹; kon [3]: 41300 M⁻¹ s⁻¹
3 | B3 | 6.7 nM | 100 | – | –
4 | B4 | 3.6 nM | 100 | – | –
5 | B5 | – | – | – | EC50 of cell killing, as bivalent cross-linked (Fab)dimer [4]: < 60 nM; EC50 of cell killing, cross-linked Fab, as monovalent fragment [4]: < 120 nM
6 | B6 | 5.9 nM ((Fab)/2) | 100 | no binding (tested: 100 ng/well) | binding result [5]: no binding (tested: 100 ng/well)
7 | B7 | 4.7 nM ((Fab)/2) | 100 | – | –
8 | B8 | – | – | – | EC50 of cell killing, as bivalent cross-linked (Fab)dimer [4]: < 60 nM; EC50 of cell killing, cross-linked Fab, as monovalent fragment [4]: < 120 nM
9 | B9 | 5.3 nM ((Fab)/2) | 100 | – | –
10 | B10 | 3.6 nM ((Fab)/2) | 100 | no binding (tested: 100 ng/well) | –
11 | B11 | 3 nM ((Fab)/2) | 100 | no binding (tested: 100 ng/well) | –
12 | B12 | 7.3 nM ((Fab)/2) | 100 | no binding (tested: 100 ng/well) | binding result [5]: no binding (tested: 100 ng/well)
13 | B13 | 2.9 nM ((Fab)/2) | 100 | no binding (tested: 100 ng/well) | EC50 of cell killing, LG2, cross-linked Fab as bivalent agent [6]: 7.2 nM; reduction of mean fluorescence intensity of the murine antibody [7]: > 90%
14 | B14 | 2.1 nM ((Fab)/2) | 100 | no binding (tested: 100 ng/well) | –
15 | B15 | 110 nM ((Fab)/2) | 100 | no binding (tested: 100 ng/well) | EC50 of cell killing, as bivalent cross-linked (Fab)dimer [4]: < 60 nM; EC50 of cell killing, cross-linked Fab, as monovalent fragment [4]: < 120 nM; binding result [5]: no binding (tested: 100 ng/well)
16 | B16 | 0.42 nM | 100 | – | koff [8]: 0.00033 s⁻¹; % killing of LG-2 cells, 50 nM, 4 h [9]: 82%
17 | B17 | 20 nM ((Fab)/2) | 100 | no binding (tested: 100 ng/well) | binding result [5]: no binding (tested: 100 ng/well); Kd [10]: 8 nM; kon [10]: 120000 M⁻¹ s⁻¹
18 | B18 | 0.28 nM | 100 | – | kon [8]: 71000 M⁻¹ s⁻¹; EC50 of cell killing, IgG form [11]: 1.2 nM; IC50 for inhibition of T cell proliferation [12]: 20 nM; % killing of LG-2 cells, 50 nM, 4 h [9]: 87%; EC50 of cell killing, LG2, IgG4 [6]: 1.23 nM; reduction of mean fluorescence intensity of the murine antibody [7]: > 90%
19 | B19 | 0.31 nM | 100 | – | kon [8]: 11000 M⁻¹ s⁻¹; EC50 of cell killing, IgG form [11]: 1.2 nM; IC50 for inhibition of T cell proliferation [12]: 11 nM; % killing of LG-2 cells, 50 nM, 4 h [9]: 88%; EC50 of cell killing, LG2, IgG4 [6]: 1 nM; reduction of mean fluorescence intensity of the murine antibody [7]: > 90%
